The nature of series [1]: Peptide gelation (incubation, OD 550 nm, inverted tube). It is filed as physicochemical. Particulars: for self-assembly behaviour observed over time / gel formation in water: DI water; for self-assembly behaviour observed over time: up to 40 h; for gel formation in water: C-terminus Val mutated. How it is done:
UV-Vis spectroscopy: The peptides were dissolved in DI water at the respective concentrations and 100 μL was aliquoted into each well of a 96-well microtiter plate, with a minimum of 3 wells per condition. UV-Vis absorbance measurements at 550 nm were recorded on a Tecan infinite M200 Pro microplate reader at intervals of 30 min for the first 16 hours and subsequently at increased time intervals.
Peptide hydrogel (GV8): GV8 peptide was dissolved in DI water at the desired concentration (between 10 and 20 mM) and incubated at ambient temperature of 23° C. to 25° C. for at least 12 hours. For active agent encapsulation, GV8 hydrogels were prepared at concentrations of 20 mM to 50 mM with 1% Dimethylsulfoxide (DMSO) added per 10 mM of peptide in PBS with a pH range of 7.2 to 7.4 to form GV8 precursors, which gelate in a sealed environment under ambient temperature of 23° C. to 25° C. with a typical gelation time ranging from 5 h to 9 h (FIG. 1), depending on the concentration of the GV8 precursor. The GV8 precursors were prepared in various types of buffer solutions—such as DI water, Dulbecco's Modified Eagle's medium (DMEM), sodium acetate buffered solution with a pH range of 4 to 5, and/or buffered solutions with a pH ranging from pH 4 to 7.4.
Peptide hydrogel (GI8): GI8 peptide was dissolved in DI water at the desired concentration (between 10 and 20 mM) and incubated at ambient temperature of 23° C. to 25° C. for at least 12 hours. GI8 hydrogels were prepared at concentrations of 20 mM to 50 mM with or without 1% Dimethylsulfoxide (DMSO) added per 10 mM of peptide in PBS with a pH range of 7.2 to 7.4 to form GI8 precursors, which gelate in a sealed environment under ambient temperature of 23° C. to 25° C. with a typical gelation time ranging from 2 h to 7 h (FIG. 1), depending on the concentration of the GI8 precursor. The GI8 precursors were prepared in various types of buffer solutions—such as DI water, Dulbecco's Modified Eagle's medium (DMEM), sodium acetate buffered solution with a pH range of 4 to 5, and/or buffered solutions with a pH ranging from pH 4 to 7.4. […]

The test system of another series is topical puncture wounds. Kind of series: In vivo wound healing assay, hydrogels applied to topical puncture wounds. More on the design: species or system mice. To be noted: especially at initial stages (0 d to 2 d), n=3. Here is the method: In vivo assay: To investigate the wound healing property of the hydrogels, 30 μL GV8 and GV8+ hydrogels loaded with 200 μg/mL ADMSC secretome were applied to topical puncture wounds on non-diabetic mice models, and monitored for a period of 2 d, 5 d and 7 d at various points in time. Representative wounds have been presented in FIG. 26, illustrating the healing of untreated (blank) and treated wounds over 7 d.

The conditions of series [2]: in the presence of Mg2+; cited from earlier work.
The nature of series [3]: Nanoindentation of GL8 beads. It is filed as physicochemical.

Take Ac-GLYGGYGI-NH2 [GI8]: the “incubation time to hydrogel formation” value in series [1] (10 mM peptide in water, inverted tube test) is 1 h. The “self-assembly behaviour observed over time” value in series [1] is given as “remained in solution with some gel-like formation observed overtime”.

Ac-GLYGGYGV-NH2 [GV8]: the “effect on wound closure versus control wounds” value with topical puncture wounds is “promoted and accelerated wound closure”. Also, the “minimal critical gelation concentration (cgc)” value in series [1] (in water) was found to be 10 mM.

With E2(SL)6E2GRGDS, in series [2], the “storage modulus (G′)” value was “about 480 Pa”.

With “GA8: Ac-GLYGGYGX-NH2 (SEQ ID NO: 11) peptide, C-terminus Val residue mutated to Ala (Ac-GLYGGYGA-NH2)”, the “gel formation in water” value in series [1] was “not able to form gels in water”.

Take “GF8: Ac-GLYGGYGX-NH2 (SEQ ID NO: 11) peptide, C-terminus Val residue mutated to Phe (Ac-GLYGGYGF-NH2)”: in series [1], the “gel formation in water” value is given as “not able to form gels in water” and the “self-assembly behaviour observed over time” value is “remained in solution with some gel-like formation observed overtime”.

With “GK8: Ac-GLYGGYGX-NH2 (SEQ ID NO: 11) peptide, C-terminus Val residue mutated to Lys (Ac-GLYGGYGK-NH2)”, in series [1], the “gel formation in water” value is reported as “not able to form gels in water”.

Take “GL8: Ac-GLYGGYGX-NH2 (SEQ ID NO: 11) peptide, C-terminus Val residue mutated to Leu (Ac-GLYGGYGL-NH2)”: in series [1], the “gel formation in water” value is on record as “not able to form gels in water”; the “self-assembly behaviour observed over time” value is “self-assembled into large (mm-size) and stiff beads”. The “Young's modulus, dried” value in series [3] (dried condition) was 8.34 GPa. Moreover, the “Young's modulus, hydrated” value in series [3] (hydrated condition) is on record as 3.03 GPa.

For “GS8: Ac-GLYGGYGX-NH2 (SEQ ID NO: 11) peptide, C-terminus Val residue mutated to Ser (Ac-GLYGGYGS-NH2)”, the “gel formation in water” value in series [1] was “not able to form gels in water”.

Source of the values: patent US12037418B2, “Hydrogel-forming peptides, and methods of use thereof” (Nanyang Technological University, priority 2020, dated 2024).
